Molecular target: T1, wildtype (WT) human interleukin-1β (Homo sapiens, UniProt P01584)
T1 construct: human interleukin-1β (hIL-1β); pET28a vector; also called WT hIL-1β; hIL-1β; source: E. coli BL21 (DE3), purified (Ni-NTA, Superdex 75 SEC)
Experiment: ELISA; antigen (100 ng) coated on the plate; scFv-mFc added in 3% skim milk in DPBST, 2 h at 37 °C; EC50
Settings: both partners purified

binding result: binds
B1: CL-E2-mFc (Fc fusion, mouse)
VH: EVQLKESGAELMKPGASVKISCKATGYTFSSYWIEWVKQRPGHGLEWIGEILPGSGSTNYNEKFKGKATFTADISSNTAYMQLSSLTSEDSAVYYCASGGYRPSMDFWGQGTSVTVSS
VL: DIVMTQSQKFMSTSVGDRVSITCKASQNVRTAVAWYQQKPGQSPKALIYLASNRHTGVPDRFTGSGSGTDFTLTITNVQSEDLADYFCLQHWNYPLTFGAGTKLELK
notes: as the scFv of m23; also called CL-E2-mFc fusion antibody; source: HEK 293F, transfected, purified (Protein A, Superdex 200 SEC)
